Test results reported in patent publication US20230085439A1.

Key:
[1] = target: pre-fusion RSV F protein A2 SC-TM (respiratory syncytial virus) (UniProt P03420); test: ELISA on coated antigen, mAb titrated; EC50 box, key 6
[2] = target: hMPV 130-BV (human metapneumovirus); test: biolayer interferometry, hMPV 130-BV on anti-penta-HIS biosensors; unit inferred
[3] = target: trimeric hMPV B2 F protein treated with trypsin (human metapneumovirus); test: ELISA on coated antigen, mAb titrated; panel hMPV B2 F trimer (trypsin), key 6
[4] = target: monomeric hMPV B2 F protein treated with trypsin (human metapneumovirus); test: ELISA on coated antigen, mAb titrated; panel hMPV B2 F monomer (trypsin), key 6

## MPE8 (antibody)
[1]
  EC50: 0.087 µg/mL

## 101F Fab
[2]
  Kd: 0.053 µM

## DS7 (antibody)
[3]
  EC50: 0.18 µg/mL
[4]
  EC50: 0.1 µg/mL
